Tests used:
[1] = test system: His-CPA (C-terminus of RNA polymerase subunit PA) (Influenza A); assay: fluorescence plate binding assay; conditions: all A are 7-phenylbutyl-7-deaza-dA (A*); 25 mM HEPES, 5 mM MgCl2, 300 mM KCl, pH 7.4 (BLI) or 7.5 (SELEX), 24 °C; plate assay washes with 1% BSA, 0.05% Tween …; aptamers folded 95 °C 5 min then cooled
[2] = target: His-Hsp70 (Heat Shock Protein 70) (UniProt P0DMV8); assay: fluorescence plate binding assay; conditions: 25 mM HEPES, 5 mM MgCl2, 300 mM KCl, pH 7.4 (BLI) or 7.5 (SELEX), 24 °C, plate assay washes with 1% BSA
His-SUMO [3] = assay: fluorescence plate binding assay; conditions: all A are 7-phenylbutyl-7-deaza-dA (A*); 25 mM HEPES, 5 mM MgCl2, 300 mM KCl, pH 7.4 (BLI) or 7.5 (SELEX), 24 °C; plate assay washes with 1% BSA, 0.05% Tween …; aptamers folded 95 °C 5 min then cooled
[4] = test system: His-NPA (N-terminus of RNA polymerase subunit PA) (Influenza A); assay: fluorescence plate binding assay; conditions: all A are 7-phenylbutyl-7-deaza-dA (A*); 25 mM HEPES, 5 mM MgCl2, 300 mM KCl, pH 7.4 (BLI) or 7.5 (SELEX), 24 °C; plate assay washes with 1% BSA, 0.05% Tween …; aptamers folded 95 °C 5 min then cooled
[5] = test system: His-CPA (C-terminus of RNA polymerase subunit PA) (Influenza A); assay: BLI; conditions: all A are 7-phenylbutyl-7-deaza-dA (A*); 25 mM HEPES, 5 mM MgCl2, 300 mM KCl, pH 7.4 (BLI) or 7.5 (SELEX), 24 °C; plate assay washes with 1% BSA, 0.05% Tween …; aptamers folded 95 °C 5 min then cooled
[6] = target: His-Hsp70 (Heat Shock Protein 70) (UniProt P0DMV8); assay: BLI; conditions: 25 mM HEPES, 5 mM MgCl2, 300 mM KCl, pH 7.4 (BLI) or 7.5 (SELEX), 24 °C, plate assay washes with 1% BSA
His-SUMO [7] = assay: BLI; conditions: all A are 7-phenylbutyl-7-deaza-dA (A*); 25 mM HEPES, 5 mM MgCl2, 300 mM KCl, pH 7.4 (BLI) or 7.5 (SELEX), 24 °C; plate assay washes with 1% BSA, 0.05% Tween …; aptamers folded 95 °C 5 min then cooled
SBP-Hsp70 = SBP-Hsp70 (UniProt P0DMV8); assay: BLI; conditions: all A are 7-phenylbutyl-7-deaza-dA (A*); 25 mM HEPES, 5 mM MgCl2, 300 mM KCl, pH 7.4 (BLI) or 7.5 (SELEX), 24 °C; plate assay washes with 1% BSA, 0.05% Tween …; aptamers folded 95 °C 5 min then cooled
[8] = test system: His-NPA (N-terminus of RNA polymerase subunit PA) (Influenza A); assay: BLI; conditions: all A are 7-phenylbutyl-7-deaza-dA (A*); 25 mM HEPES, 5 mM MgCl2, 300 mM KCl, pH 7.4 (BLI) or 7.5 (SELEX), 24 °C; plate assay washes with 1% BSA, 0.05% Tween …; aptamers folded 95 °C 5 min then cooled
[9] = all A are 7-phenylbutyl-7-deaza-dA (A*), 0.05% Tween …, aptamers folded 95 °C 5 min then cooled
[10] = none (natural dA), 0.05% Tween 20, aptamers folded 95 °C 5 min then …
[11] = all A after nt 19 are 7-phenylbutyl-7-deaza-dA (A*), 0.05% Tween 20, aptamers folded 95 °C 5 min then …
[12] = A after nt 19 are 7-phenylbutyl-7-deaza-dA (A*), 0.05% Tween 20, aptamers folded 95 °C 5 min then …

AGACCTCATAGTCCTTCTAATTATACTCCAATGGCATAGCTGGCAC [HSc-9.1]
Kd [1]: 1000 nM
Kd [2, 9]: 14.8 nM
Kd (His-SUMO [3]): 1110 nM
Kd [4]: 1250 nM
Kd [5]: 1240 nM
Kd [6, 9]: 29.1 nM
Kd (His-SUMO [7]): 1320 nM
Kd (SBP-Hsp70): 28.5 nM
Kd [8]: 1550 nM

GCAGCAGAGATAGACGCTAAGACCTCATAGTCCTTCTAATTATACTCCAATGGCATAGCTGGCAC [HSNat-9]
Kd [2, 10]: > 10000 nM
Kd [6, 10]: 4650 nM

GCAGCAGAGATAGACGCTAAGACCTCATAGTCCTTCTAATTATACTCCAATGGCATAGCTGGCAC [HSc-9]
Kd [2, 11]: 29.1 nM
Kd [6, 11]: 36 nM

GCAGCAGAGATAGACGCTACCCCTTAATAAAAACATACGGTCCATTCCCGTCGTACGATTGATTG [Scr2]
Kd [2, 12]: 687 nM
Kd [6, 12]: 620 nM

GCAGCAGAGATAGACGCTACCCCTTAATAAAAACATACGGTCCATTCCCGTCGTACGATTGATTG [Scr3]
Kd [2, 12]: 775 nM
Kd [6, 12]: 700 nM

GCAGCAGAGATAGACGCTATCGATGACTATAATTCCCATCTATCATCCAATGGCATAGCTGGCAC [Scr1]
Kd [2, 12]: 536 nM
Kd [6, 12]: 560 nM

GCAGCAGAGATAGACGCTATTCTCTAGACCTTCTAATTTACATACTCCAATGGCATAGCTGGCAC [HSNat-2]
Kd [2, 10]: > 10000 nM
Kd [6, 10]: > 5000 nM

GCAGCAGAGATAGACGCTATTCTCTAGACCTTCTAATTTACATACTCCAATGGCATAGCTGGCAC [HSc-2]
Kd ([2]; error printed as 6 in Table 6, all A after nt 19 plus those marked A* are 7-phenylbutyl-7-deaza-dA, except none in 5' primer region (nt 1-19), printed A26 and later marked A*, 0.05% Tween 20, aptamers folded 95 °C 5 min then …): 245 nM
Kd ([6]; all A after nt 19 plus those marked A* are 7-phenylbutyl-7-deaza-dA, except none in 5' primer region (nt 1-19), printed A26 and later marked A*, 0.05% Tween 20, aptamers folded 95 °C 5 min then …): 66 nM

From article PMC10079658
